Where no end group is shown, it is not given here. The star is where a group is joined. sulfate = O=S(=O)(O)*
Assays:
[1] = system: hLPL bound to immobilized heparan sulfate; test: GPIHBP1-mediated extraction of LPL from HSPGs (SPR, immobilized heparin dp4 fragments); format: binding, human; conditions: 12.5–200 nM GPIHBP1 proteins, 0.1–1.6 μM sulfated GPIHBP1^1–33, or GPIHBP1^34–131 with 1 μM sulfated GPIHBP1^1–33
Description: To mimic electrostatic conditions found in the sub-endothelial spaces where surface-bound heparan-sulfate proteoglycans (HSPGs) are abundant, we designed a surrogate sensor surface using a streptavidin-coated CM5 sensor chip to capture high densities of biotinylated synthetic heparin dp4 fragments ([28], [29]). The reference surface was loaded with a neutral and non-sulfated fragment (M09 S00 from Iduron), while the active surface was loaded with a negatively charged fragment (M09 S08a from Iduron) containing N- and O-6-linked sulfations on each of the […] glucosamine residues in the DP4 fragment. Only the highly sulfated oligosaccharide bound LPL, and those interactions were transient with high off-rates. Despite the very transient nature of this binding, we created a stable reservoir of hLPL on the sensor surface by combining the fast kinetics of polyelectrolyte interactions with severe mass transport limitation—the latter phenomenon impedes LPL escape from the surface due to the fast rebinding that is favored by the high densities of immobilized heparin fragments (300 fmol/mm^2). For each experiment, 12.5 nM hLPL was loaded for 100 s at a flow rate of 20 μl/min in 10 mM Hepes (pH 7.4), 150 mM NaCl, 4 mM CaCl2, 10% (vol/vol) glycerol, 0.05% (vol/vol) surfactant P20, 1 mg/ml defatted BSA, […], and 0.05% (wt/vol) NaN3.
To compare the ability of GPIHBP1^1–131 and its charge variants to bind and extract hLPL from this dynamic reservoir, we injected twofold serial dilutions of 1.25–200 nM GPIHBP1^1–131; 1.25–200 nM GPIHBP1^Cluster1-neutral; GPIHBP1^Cluster2-neutral; 1.25–200 nM GPIHBP1^34–131; 0.1–1.6 μM GPIHBP1^1–33 with Tyr^18–SO4; or 1.25–200 nM GPIHBP1^34–131 in the presence of 1 μM sulfated GPIHBP1^1–33 for 250 s at 20 μl/min in 10 mM Hepes (pH 7.4), 150 mM NaCl, 4 mM CaCl2, 10% (vol/vol) glycerol, 0.05% (vol/vol) surfactant P20, 0.2 mg/ml fatty acid-free BSA, and 0.05% (wt/vol) NaN3. At the end of each cycle, two consecutive injections of 10 μl 3 M guanidinium chloride regenerated the chip.
GPIHBP1’s ability to displace LPL from its HSPG-bound state in the sub-endothelial spaces is essential for the trans-endothelial trafficking of LPL to the luminal surface of capillary cells ([29]). The importance of the acidic tail in this process is supported by solid evidence from surrogate in vitro models and in vivo studies in gene-edited mice ([28], [29]). It was therefore important to determine the relative impact of the two charge-clusters in GPIHBP1 on their ability to disrupt LPL•HSPG interactions. To gain this insight, we measured the ability of different GPIHBP1 charge variants to displace hLPL from a SPR sensor chip surface coupled with a high density of immobilized small heparin-like fragments ([28]). […]

bLPL = test: PCSK3 cleavage of LPL (SDS-PAGE densitometry); format: biochemical, bovine; conditions: 20 μM bLPL, 4 units PCSK3, 2 μM ANGPTL4, no GPIHBP1; 25°C, pH 7.0; 110 min without ANGPTL4
Experimental: To determine if charge-variants of GPIHBP1 confer distinct resistance to ANGPTL4-facilitated cleavage of LPL after Arg^324 by PCSK3 ([33]), we incubated purified bLPL (20 μM) with PCSK3 (4 units) for 0–240 min, either alone or in the presence of ANGPTL4 (2 μM) and/or GPIHBP1 (25 μM) at 25°C in 10 mM 2-(N-morpholino) ethane sulfonic acid (MES), 150 mM NaCl, 1 mM CaCl2, pH 7.0. We tested four different GPIHBP1 variants: GPIHBP1^1–131, GPIHBP1^Cluster1-neutral, GPIHBP1^Cluster2-neutral, and GPIHBP1^34–131 (LU domain only). PCSK3 cleavage was stopped by boiling in SDS-PAGE sample buffer (reduced and alkylated) and the degree of cleavage was assessed by SDS-PAGE using 12% Bis-Tris SDS-PAGE gels followed by densitometric scanning of the corresponding Coomassie blue–stained SDS-polyacrylamide gels.
Secretion of LPL by adipocytes is modulated in an autocrine manner by ANGPTL4. […] In the presence of endogenous ANGPTL4, a significant fraction of LPL was cleaved by PCSK3 in the trans-Golgi compartment. […] The presence of GPIHBP1 dramatically delayed PCSK3 cleavage of LPL ([33]). To assess the role of the acidic tail in GPIHBP1 on this delay, we incubated 20 μM bLPL with 4 units of PCSK3 either alone or in the presence of 2 μM ANGPTL4. We observed that the presence of sub-stoichiometric amounts of ANGPTL4 reduced the half-life of intact bLPL from 110 min to less than 5 min (Fig. 5A). […] Our results emphasized the essential role of GPIHBP1’s acidic tail in protecting LPL against ANGPTL4-induced cleavage by PCSK3.
Fig. 5 GPIHBP1 reduces ANGPTL4-facillitated PSCK3 cleavage of LPL. 20 μM bLPL was incubated with 4 units of PSCK3 for 0–240 min at 25°C and the extent of LPL cleavage after Arg^324 was assessed by densitometric scanning of Coomassie–blue stained polyacrylamide after SDS-PAGE of reduced and alkylated samples. A: PSCK3 cleavage of LPL is accelerated by the presence of 2 μM ANGPTL4—present at sub-stoichiometric amounts compared to bLPL (20 μM). 25 μM intact GPIHBP1, but not GPIHBP1^34–131 mitigates PSCK3 cleavage of LPL. B: Both GPIHBP1^Cluster1-neutral and GPIHBP1^Cluster2-neutral rescue LPL from cleavage by PSCK3 in the absence of ANGPTL4 and both are more efficient than GPIHBP1^34–131. C: in the presence of 2 μM ANGPTL4, 25 μM GPIHBP1^Cluster1-neutral protects LPL from PSCK3 cleavage more efficiently than the GPIHBP1^Cluster2-neutral, which indicates a more prominent role of acidic cluster 2 in protecting LPL from ANGPTL4-catalyzed unfolding and subsequent PSCK3 cleavage. Shown are the mean values (±SEM) for intact LPL relative to that present at time 0 min for 3–5 independent time-course experiments. Some curves appear in multiple panels to increase clarity.

[2] = target: T1, Human LPL (lipoprotein lipase) (human, UniProt P06858 28-475, R324A); test: cell-based or functional assay
T1 sequence (looked up): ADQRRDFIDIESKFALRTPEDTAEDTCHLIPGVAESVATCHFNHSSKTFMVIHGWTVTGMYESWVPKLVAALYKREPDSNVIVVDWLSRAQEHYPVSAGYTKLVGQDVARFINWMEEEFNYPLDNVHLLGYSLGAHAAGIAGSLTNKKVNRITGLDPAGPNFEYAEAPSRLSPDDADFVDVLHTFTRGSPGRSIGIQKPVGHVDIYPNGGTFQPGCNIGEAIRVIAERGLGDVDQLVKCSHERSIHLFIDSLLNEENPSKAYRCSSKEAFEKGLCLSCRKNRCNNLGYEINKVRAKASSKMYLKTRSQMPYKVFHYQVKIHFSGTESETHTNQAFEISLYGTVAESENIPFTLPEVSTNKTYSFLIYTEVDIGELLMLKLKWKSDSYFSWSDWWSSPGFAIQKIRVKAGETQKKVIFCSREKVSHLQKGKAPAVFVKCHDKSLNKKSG

Bovine LPL = target: T2, Bovine LPL (bovine, UniProt P11151 29-478); test: native gel or EMSA; native PAGE of purified GPIHBP1 charge variants with hLPL, bLPL or mLPL (supplemental Fig. S1); conditions: both partners purified
T2 construct: also called bLPL; source: purified from fresh bovine milk
T2 sequence (looked up): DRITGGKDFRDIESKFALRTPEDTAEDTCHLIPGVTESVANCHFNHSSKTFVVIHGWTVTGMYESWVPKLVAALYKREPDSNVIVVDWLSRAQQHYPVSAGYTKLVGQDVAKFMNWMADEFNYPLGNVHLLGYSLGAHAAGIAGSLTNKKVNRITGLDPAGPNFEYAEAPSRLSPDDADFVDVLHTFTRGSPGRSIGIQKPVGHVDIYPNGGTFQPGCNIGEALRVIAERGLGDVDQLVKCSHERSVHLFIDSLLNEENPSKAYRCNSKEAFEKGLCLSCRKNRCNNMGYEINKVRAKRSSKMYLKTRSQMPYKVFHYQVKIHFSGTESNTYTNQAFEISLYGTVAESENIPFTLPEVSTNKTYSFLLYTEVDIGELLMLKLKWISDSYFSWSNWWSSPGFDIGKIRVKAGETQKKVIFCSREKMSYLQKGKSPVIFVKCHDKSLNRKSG

sulfated GPIHBP1^1–33: GPIHBP1^1–33 peptide carrying a tyrosyl-sulfation (Tyr^18) (QTQQEEEEEDEDHGPDDY(sulfate)DEEDEDEVEEEETNR; UniProt Q8IV16 21-53, looked up, fragment)
competitive displacement of HSPG-bound hLPL (in words) [1]: not perturbed

B1: ANGPTL4: Coiled-coil domain of ANGPTL4 (residues 1–159, N-terminal methionine, C-terminal 6× His-tag) produced in E. coli (protein, UniProt Q9BY76 26-406, looked up)
Angiopoietin-related protein 4: GPVQSKSPRFASWDEMNVLAHGLLQLGQGLREHAERTRSQLSALERRLSACGSACQGTEGSTDLPLAPESRVDPEVLHSLQTQLKAQNSRIQQLFHKVAQQQRHLEKQHLRIQHLQSQFGLLDHKHLDHEVAKPARRKRLPEMAQPVDPAHNVSRLHRLPRDCQELFQVGERQSGLFEIQPQGSPPFLVNCKMTSDGGWTVIQRRHDGSVDFNRPWEAYKAGFGDPHGEFWLGLEKVHSITGDRNSRLAVQLRDWDGNAELLQFSVHLGGEDTAYSLQLTAPVAGQLGATTVPPSGLSVPFSTWDQDHDLRRDKNCAKSLSGGWWFGTCSHSNLNGQYFRSIPQQRQKLKKGIFWKTWRGRYYPLQATTMLIQPMAAEAAS
half-life of intact bLPL (bLPL): less than 5 min

B2: GPIHBP1^1–131/R38G (domain or fragment, human, UniProt Q8IV16 21-151, looked up)
chain: QTQQEEEEEDEDHGPDDYDEEDEDEVEEEETNRLPGGGSRVLLRCYTCKSLPRDERCNLTQNCSHGQTCTTLIAHGNTESGLLTTHSTWCTDSCQPITKTVEGTQVTMTCCQSSLCNVPPWQSSRVQDPTG
modifications: sulfated Tyr18; one bi-antennary N-linked glycosylation
reduction in hLPL levels on the heparan sulfate sensor surface after GPIHBP1 injections (12.5–200 nM), SPR [2]: 68.1%

B3: GPIHBP1^Cluster1-neutral (domain or fragment, human, UniProt Q8IV16 21-151, looked up)
chain: QTQQQQQQQNQNHGPNNYDEEDEDEVEEEETNRLPGGGSRVLLRCYTCKSLPRDERCNLTQNCSHGQTCTTLIAHGNTESGLLTTHSTWCTDSCQPITKTVEGTQVTMTCCQSSLCNVPPWQSSRVQDPTG
modifications: Tyr18 sulfation present in less than 40%; one bi-antennary N-linked glycosylation
notes: Construct from VectorBuilder Inc; source: Drosophila S2-cells, secreted, purified, D3 tag removed; not shown: uPAR domain III, N-terminal, cleaved
binding result (Bovine LPL): binds | reduction in hLPL levels on the heparan sulfate sensor surface after GPIHBP1 injections (12.5–200 nM), SPR [2]: 34.8%

B4: GPIHBP1^Cluster2-neutral (domain or fragment, human, UniProt Q8IV16 21-151, looked up)
chain: QTQQEEEEEDEDHGPDDYNQQNQNQVQQQQTNRLPGGGSRVLLRCYTCKSLPRDERCNLTQNCSHGQTCTTLIAHGNTESGLLTTHSTWCTDSCQPITKTVEGTQVTMTCCQSSLCNVPPWQSSRVQDPTG
modifications: Tyr18 sulfation absent; one bi-antennary N-linked glycosylation
notes: as for B3
binding result (Bovine LPL): binds | reduction in hLPL levels on the heparan sulfate sensor surface after GPIHBP1 injections (12.5–200 nM), SPR [2]: 1.2%

Reference: PMC11869522, “Competitive displacement of lipoprotein lipase from heparan sulfate is orchestrated by a disordered acidic cluster in GPIHBP1” (Journal of Lipid Research, 2025)
